Reference: article PMC2517623, “The NDR/LATS Family Kinase Cbk1 Directly Controls Transcriptional Asymmetry” (PLoS Biology, 2008)

B1: GST-Ace2(122-150), wild-type (domain or fragment)
chain: SGTAIFGFLGHNKTLSISSLQQSILNMSK
notes: source: E. coli BL21(DE3)RIL, immobilised from lysate on glutathione-sepharose and washed; not shown: GST, N-terminal, kept
B2: GST-Ace2(122-150) F127V (domain or fragment)
chain: SGTAIVGFLGHNKTLSISSLQQSILNMSK
notes: as for B1
B3: GST-Ace2(122-150) S122D (domain or fragment)
chain: DGTAIFGFLGHNKTLSISSLQQSILNMSK
notes: as for B1
B4: GST-Ace2(122-150) S137D (domain or fragment)
chain: SGTAIFGFLGHNKTLDISSLQQSILNMSK
notes: as for B1

Each binder was assayed against His6-Crm1 (S. cerevisiae, UniProt P30822 1-1084) (assay: pull-down; GST fusions immobilised on glutathione-sepharose from E. coli lysate and washed five times in PBS/KMD; His6-Xpo1 (Crm1) 5 μM in 100 μl, 4 °C, 15 min; washed with TBST; SDS-PAGE, GelCode Blue; without Ran-GTP). Conditions: both partners purified.

| Binder | binding result |
| --- | --- |
| B1 | binds |
| B2 | binds |
| B3 | binds |
| B4 | binds |
